Five molecules from US10357539B2, “Use of peptides that block metadherin-SND1 interaction as treatment for cancer” (THE TRUSTEES OF PRINCETON UNIVERSITY, priority 2014, dated 2019) can be followed below.

Test [1] addresses T1, SND1 (Homo sapiens, UniProt Q7KZF4).
T1 construct: Full-length HA-tagged SND1 was co-expressed with full-length Myc-tagged wild-type (WT) or mutant MTDH in HEK293T cells; expressed in transfected cells; host or cells: HEK293T
T1 sequence (Q7KZF4 1-910): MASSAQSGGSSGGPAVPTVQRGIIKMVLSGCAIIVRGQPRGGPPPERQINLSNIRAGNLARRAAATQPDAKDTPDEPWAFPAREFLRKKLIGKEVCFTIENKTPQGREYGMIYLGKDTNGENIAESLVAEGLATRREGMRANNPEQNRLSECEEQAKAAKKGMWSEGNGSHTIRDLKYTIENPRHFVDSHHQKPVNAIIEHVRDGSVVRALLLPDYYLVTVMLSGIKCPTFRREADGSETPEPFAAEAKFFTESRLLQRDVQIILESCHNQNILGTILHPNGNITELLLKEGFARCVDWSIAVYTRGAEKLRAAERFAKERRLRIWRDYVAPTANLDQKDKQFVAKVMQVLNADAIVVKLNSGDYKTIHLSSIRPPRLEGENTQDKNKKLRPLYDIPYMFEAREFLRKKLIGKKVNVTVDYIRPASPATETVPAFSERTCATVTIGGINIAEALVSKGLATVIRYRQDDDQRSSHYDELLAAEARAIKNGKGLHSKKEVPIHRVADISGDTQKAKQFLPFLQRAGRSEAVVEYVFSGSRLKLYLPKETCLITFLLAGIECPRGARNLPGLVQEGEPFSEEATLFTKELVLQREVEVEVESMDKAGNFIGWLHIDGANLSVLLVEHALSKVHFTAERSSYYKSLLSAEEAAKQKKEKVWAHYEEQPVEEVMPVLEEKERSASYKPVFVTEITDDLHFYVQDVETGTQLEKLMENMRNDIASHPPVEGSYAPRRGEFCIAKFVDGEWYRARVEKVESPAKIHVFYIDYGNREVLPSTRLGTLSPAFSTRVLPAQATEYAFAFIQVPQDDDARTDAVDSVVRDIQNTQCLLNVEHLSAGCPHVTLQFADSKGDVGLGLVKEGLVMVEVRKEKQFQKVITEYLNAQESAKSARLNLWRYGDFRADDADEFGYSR
Put plainly: Co-immunoprecipitation of full-length Myc-MTDH (WT or mutant) and HA-SND1 in HEK293T cells. The following applies: HEK293T cell lysates, immunoprecipitation and immunoblot. It is filed as cell-based. From the text: (§1) FIGS. 7A-E represents determination of key regions and residues mediating the MTDH-SND1 interaction. (FIG. 7A) Schematics of MTDH fragments and mutants with indicated SND1-binding capability. + indicates binding and − indicates no binding based on results shown below. Two putative nuclear localization signals are residues 432-451 for NLS2 and residues 561-580 for NLS3. In the enlarged view of the minimal binding region 386-407, 9 residues were targeted for mutagenesis in the current study. […] (FIG. 7B) Pulldown of His6-SND1AC by GST-tagged MTDH fragments with indicated boundaries. The bound proteins were examined by SDS-PAGE and visualized by Coomassie blue staining. (FIG. 7C) Pulldown of His6-SND1ΔC by GST-tagged WT or triple mutant MTDH fragments (364-582). For (FIG. 7B) and (FIG. 7C), 1/10 of the His6-SND1ΔC input was shown, and GST alone was used as a negative control. Representative results of 3 independent experiments are shown. (FIG. 7D, FIG. 7E) Lysates from HEK293T cells expressing the indicated ectopic human SND1, AGO2 or MTDH were immunoprecipitated with anti-Myc and immunoblotted with the indicated antibodies.
(§2) (FIG. 22A) In vitro pull-down of SND1 (16-339) by GST-tagged MTDH (364-582) harboring WT or mutant sequence. The proteins bound to GS4B were examined on SDS-PAGE and visualized by Coomassie blue staining. (FIG. 22B) In vitro pull-down of WT and mutant SND1 (16-339) by GST-tagged MTDH (364-582). The bound proteins were examined as in (FIG. 22A). For both (FIG. 22A) and (FIG. 22B), experiments were repeated three times; representative results are shown. The normalized percentage of binding was averaged from three experiments; mean±SEM was shown below the data. (FIG. 22C) HEK293T cells were transfected with human HA-SND1, WT Myc-MTDH or Myc-MTDH with indicated single point mutation. Lysates were immunoprecipitated with anti-Myc antibody and immunoblotted with the indicated antibodies. (FIG. 22D) HEK293T cells were transfected with human Myc-MTDH, WT HA-SND1 or mutant HA-SND1 with indicated single point mutations or deletions. Lysates were immunoprecipitated with anti-Myc and immunoblotted with the indicated antibodies.
Immunoprecipitation and western blot For immunoprecipitation (IP) experiments, cultured cells were washed in cold PBS and lysed in lysis buffer (20 mM Tris pH 7.4, 0.15 M NaCl, 1 mM EDTA, 1 mM EGTA, 1% Tx-100, 0.0025 M Na2P2O7, 1 mM α-glycerolphosphate, 1 mM Na3VO4, and 1 mM NaF) with an EDTA-free protease inhibitor mixture (Roche Applied Science) and PMSF. Cell lysates were then incubated on ice for 10 min, centrifuged, and precleared by incubating with protein A/G beads (Santa Cruz Biotechnology) for 1 h at 4° C. For IP bead preparation, 30 μl of protein A/G beads were incubated with 5 μg of antibodies for 2 h at 4° C. IPs were carried out for overnight at 4° C., and beads were centrifuged, washed and subsequently boiled for 5 min in SDS protein loading buffer to elute bound protein. IP lysates were subjected to western blotting with indicated antibodies.
Immunoprecipitation and western blot: For in vivo immunoprecipitation (IP) experiments, cultured cells were washed in cold PBS and lysed in lysis buffer (20 mM Tris pH 7.4, 0.15 M NaCl, 1 mM EDTA, 1 mM EGTA, 1% Tx-100, 0.0025 M Na2P2O7, 1 mM β-glycerolphosphate, 1 mM Na3VO4, and 1 mM NaF) with an EDTA-free protease inhibitor mixture (Roche Applied Science) and PMSF. Cell lysates were then incubated on ice for 10 min, centrifuged, and precleared by incubating with protein A/G beads (Santa Cruz Biotechnology) for 1 h at 4° C. For IP bead preparation, 30 μl of protein A/G beads were incubated with 5 μg of antibodies for 2 h at 4° C. IPs were carried out for overnight at 4° C., and beads were centrifuged, washed and subsequently boiled for 5 min in SDS protein loading buffer to elute bound protein. IP lysates were subjected to western blotting with indicated antibodies.
(A western blot detects proteins with antibodies after separation by electrophoresis.)

For test [2], the target named is T2, SND1 (Homo sapiens, UniProt Q7KZF4).
T2 construct: 15 μg of His-SND1 (16-339) was added to the resin; made in house; host or cells: E. coli DH5α
T2 sequence (Q7KZF4 16-339): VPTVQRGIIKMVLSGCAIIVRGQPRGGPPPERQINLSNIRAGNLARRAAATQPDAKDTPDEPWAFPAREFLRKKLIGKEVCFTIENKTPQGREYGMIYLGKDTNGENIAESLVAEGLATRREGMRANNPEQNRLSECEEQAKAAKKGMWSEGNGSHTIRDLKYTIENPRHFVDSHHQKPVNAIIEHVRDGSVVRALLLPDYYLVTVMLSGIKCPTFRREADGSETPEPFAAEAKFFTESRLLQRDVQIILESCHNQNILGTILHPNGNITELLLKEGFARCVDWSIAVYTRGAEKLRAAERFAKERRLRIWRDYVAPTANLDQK
In words: GST-mediated pull-down of SND1 by GST-tagged MTDH fragments and mutants. The format is binding. As to conditions: SND1 (16-339); GST-tagged MTDH (364-582).
Description: as §1, §2
GST-Mediated Pull-Down Assay: ˜20 μg of GST-MTDH (different truncation forms and site mutants) was bound to 10 μl of glutathione resin via GST tag. The resin was washed with 200 μl assay buffer (25 mM Tris, PH8.0, 150 mM NaCl, 3 mM DTT) three times to remove the excess unbound protein. 15 μg of His-SND1 (16-339) was added to the resin in a 100 μl volume suspended in the assay buffer with 2 mg/ml of BSA. The mixture was washed with 200 μl assay buffer twice before examined by SDS-PAGE, and visualized by Coomassie blue staining. The experiments were repeated 3 times and the ratio of SND1 associated with GST-MTDH was analyzed by ImageJ.

B1: WT MTDH: full-length Myc-tagged wild-type human MTDH (protein, UniProt Q86UE4 1-582, looked up)
chain: MAARSWQDELAQQAEEGSARLREMLSVGLGFLRTELGLDLGLEPKRYPGWVILVGTGALGLLLLFLLGYGWAAACAGARKKRRSPPRKREEAAAVPAAAPDDLALLKNLRSEEQKKKNRKKLSEKPKPNGRTVEVAEGEAVRTPQSVTAKQPPEIDKKNEKSKKNKKKSKSDAKAVQNSSRHDGKEVDEGAWETKISHREKRQQRKRDKVLTDSGSLDSTIPGIENTITVTTEQLTTASFPVGSKKNKGDSHLNVQVSNFKSGKGDSTLQVSSGLNENLTVNGGGWNEKSVKLSSQISAGEEKWNSVSPASAGKRKTEPSAWSQDTGDANTNGKDWGRSWSDRSIFSGIGSTAEPVSQSTTSDYQWDVSRNQPYIDDEWSGLNGLSSADPNSDWNAPAEEWGNWVDEERASLLKSQEPIPDDQKVSDDDKEKGEGALPTGKSKKKKKKKKKQGEDNSTAQDTEELEKEIREDLPVNTSKTRPKQEKAFSLKTISTSDPAEVLVKNSQPIKTLPPATSTEPSVILSKSDSDKSSSQVPPILQETDKSKSNTKQNSVPPSQTKSETSWESPKQIKKKKKARRET
modifications: full-length Myc tag
For the molecule B1, the “interaction of full-length MTDH (WT or mutant) with HA-SND1” value with SND1 [1] is “pulled down”.

B2: E400R: MTDH single point mutant E400R (protein, listed as Homo sapiens)
chain: MAARSWQDELAQQAEEGSARLREMLSVGLGFLRTELGLDLGLEPKRYPGWVILVGTGALGLLLLFLLGYGWAAACAGSRKKRRSPPRKREEAAAVPAAAPDDLALLKNLRSEEQKKKNRKKLSEKPKPNGRTVEVAEGEAVRTPQSVTAKQPPEIDKKNEKSKKNKKKSKSDAKAVQNSSRHDGKEVDEGAWETKISHREKRQQRKRDKVLTDSGSLDSTIPGIENTITVTTEQLTTASFPVGSKKNKGDSHLNVQVSNFKSGKGDSTLQVSSGLNENLTVNGGGWNEKSVKLSSQISAGEEKWNSVSPASAGKRKAEPSAWSQDTGDANTNGKDWGRSWSDRSIFSGIGSTAEPVSQSTTSDYQWDVSRNQPYIDDEWSGLNGLSSADPNSDWNAPAERWGNWVDEERASLLKSQEPIPDDQKVSDDDKEKGEGALPTGKSKKKKKKKKKQGEDNSTAQDTEELEKEIREDLPVNTSKTRPKQEKAFSLKTISTSDPAEVLVKNSQPIKTLPPATSTEPSVILSKSDSDKSSSQVPPILQETDKSKSNTKQNSVPPSQTKSETSWESPKQIKKKKKARRET
On to B2, for which the “SND1-binding of MTDH (364-582) point mutants, in vitro” value (“SND1-binding of MTDH” below) with SND1 [2] is given as “barely had any effect”.

B3: N395A: MTDH mutant N395A (protein)
chain: YQWDVSRNQPYIDDEWSGLNGLSSADPNSDWAAPAEEWGNWVDEERASLLKSQEPIPDDQKVSDDDKEKGEGALPTGKSKKKKKKKKKQGEDNSTAQDTEELEKEIREDLPVNTSKTRPKQEKAFSLKTISTSDPAEVLVKNSQPIKTLPPATSTEPSVILSKSDSDKSSSQVPPILQETDKSKSNTKQNSVPPSQTKSETSWESPKQIKKKKKARRET
modifications: left off: a dimerising Fc or GST
B3: in the test with SND1 [2], the “SND1-binding of MTDH” value was “barely had any effect”.

B4: N403A: MTDH mutant N403A (protein)
chain: YQWDVSRNQPYIDDEWSGLNGLSSADPNSDWNAPAEEWGAWVDEERASLLKSQEPIPDDQKVSDDDKEKGEGALPTGKSKKKKKKKKKQGEDNSTAQDTEELEKEIREDLPVNTSKTRPKQEKAFSLKTISTSDPAEVLVKNSQPIKTLPPATSTEPSVILSKSDSDKSSSQVPPILQETDKSKSNTKQNSVPPSQTKSETSWESPKQIKKKKKARRET
modifications: left off: a dimerising Fc or GST
Take B4: the “SND1-binding of MTDH” value with SND1 [2] is “barely had any effect”.

B5: E400A: MTDH mutant E400A (protein)
chain: YQWDVSRNQPYIDDEWSGLNGLSSADPNSDWNAPAEAWGNWVDEERASLLKSQEPIPDDQKVSDDDKEKGEGALPTGKSKKKKKKKKKQGEDNSTAQDTEELEKEIREDLPVNTSKTRPKQEKAFSLKTISTSDPAEVLVKNSQPIKTLPPATSTEPSVILSKSDSDKSSSQVPPILQETDKSKSNTKQNSVPPSQTKSETSWESPKQIKKKKKARRET
modifications: left off: a dimerising Fc or GST
Turning to B5, the “SND1-binding of MTDH” value with SND1 [2] was “barely had any effect”.
